{"source": "patent US20250188130A1", "molecular_target": "E glycoprotein of DENV2-FL-Mature (fusion loop N103S and G106L), on virus (Dengue virus serotype 2, strain S16803 (engineered)) (UniProt P18356)", "experiment": "cell-based or functional assay", "data": [{"substance": "1M7 (antibody)", "values": [{"measurement": "neutralization (FRNT, EC50) (logs (reduction against DENV2))", "result": 2}]}]}
